From patent US6635738

Experiments:
[1] = biological target: IL-1β in PC12 cell cultures; assay: cell-based or functional assay
[2] = biological target: IL-1 receptor on PC12 cells; assay: cell-based or functional assay
[3] = biological target: Recombinant human pro-IL-1β, P01584
Sequence of Recombinant human pro-IL-1β, P01584 (P01584 whole entry, looked up): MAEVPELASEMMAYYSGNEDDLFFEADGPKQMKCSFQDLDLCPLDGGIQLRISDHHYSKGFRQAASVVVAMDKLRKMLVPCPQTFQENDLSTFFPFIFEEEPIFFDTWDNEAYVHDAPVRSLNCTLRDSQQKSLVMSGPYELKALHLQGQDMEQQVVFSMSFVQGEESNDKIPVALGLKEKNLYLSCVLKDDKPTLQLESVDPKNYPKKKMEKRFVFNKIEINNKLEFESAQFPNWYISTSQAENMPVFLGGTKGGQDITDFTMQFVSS

## Blocking monoclonal hamster anti-mouse IL-1β antibody (Genzyme)
[1]
  suppression of death of V-ASOD1 treated (SOD1 deficient) PC12 cells; antibody concentration used: 30 µg/mL

## IL-1 receptor antagonist (rmIL-1Ra) (from UniProt P25085 27-178) (ligand)
[2]
  suppression of death of V-ASOD1 treated (SOD1 deficient) PC12 cells; antagonist concentration used: 100 ng/mL

B1: Recombinant human ICE (interleukin 1β converting enzyme) (protein)
chain: NPAMPTSSGSEGNVKLCSLEEAQRIWKQKSAEIYPIMDKSSRTRLALIICNEEFDSIPRRTGAEVDITGMTMLLQNLGYSVDVKKNLTASDMTTELEAFAHRPEHKTSDSTFLVFMSHGIREGICGKKHSEQVPDILQLNAIFNMLNTKNCPSLKDKPKVIIIQACRGDSPGVVWFKDSVGVSGNLSLPTTEEFEDDAIKKAHIEKDFIAFCSSTPDNVSWRHPTMGSVFIGRLIEHMQEYACSCDVEEIFRKVRFSFEQPDGRAQMPTTERVTLTRCFYLFPGH
[3]
  cleavage of pro-IL-1β by ICE in vitro (SDS-PAGE and immunoblot): There is some cleavage in the presence of the inhibitor but much less than seen with ICE alone
